This note sets out measurements from US20090131277A1 (PROSCAN RX PHARMA, published 2009).

The target of this assay is T1, prostate-specific membrane antigen (PSMA) (human, UniProt Q04609 44-750, limits assumed, 125I-labelled in Examples 2 and 8 (site of iodination not stated); unlabelled in Examples 5 and 6).
T1 construct: also called purified recombinant PSMA
Kind of assay: competition radioligand binding: 1 nM 125I-PSMA on plate-coated mimetope (SEQ ID NO:24), with 0 or 10 uM of the soluble peptide as competitor. The method, then: For a typical competition binding experiment, the mimetope is coated to a solid support such as a 96-well plate by allowing 100 ul of a 10 uM solution of the mimetope (SEQ ID NO:24) in water to dry in the wells. The wells are then washed with TBST and blocked with 3% casein in TBST to minimize non-specific binding. The wells are then incubated with 1 nM ¹²⁵I-PSMA at a specific activity of about 80 000 dpm/pmol, containing 0 or 10 uM of alanine-mimetope. The plate is incubated O/N at 4° C. then the wells are rapidly washed with TBST to remove the unbound ligand fraction, and then counted in a gamma counter. The radioactivity counted in each wells represents the bound fraction of the ligand. An alanine-mimetope that binds to PSMA will thus reduce the binding of ¹²⁵I-PSMA to the coated (SEQ ID NO:24).

T1 sequence (Q04609 44-750 limits assumed): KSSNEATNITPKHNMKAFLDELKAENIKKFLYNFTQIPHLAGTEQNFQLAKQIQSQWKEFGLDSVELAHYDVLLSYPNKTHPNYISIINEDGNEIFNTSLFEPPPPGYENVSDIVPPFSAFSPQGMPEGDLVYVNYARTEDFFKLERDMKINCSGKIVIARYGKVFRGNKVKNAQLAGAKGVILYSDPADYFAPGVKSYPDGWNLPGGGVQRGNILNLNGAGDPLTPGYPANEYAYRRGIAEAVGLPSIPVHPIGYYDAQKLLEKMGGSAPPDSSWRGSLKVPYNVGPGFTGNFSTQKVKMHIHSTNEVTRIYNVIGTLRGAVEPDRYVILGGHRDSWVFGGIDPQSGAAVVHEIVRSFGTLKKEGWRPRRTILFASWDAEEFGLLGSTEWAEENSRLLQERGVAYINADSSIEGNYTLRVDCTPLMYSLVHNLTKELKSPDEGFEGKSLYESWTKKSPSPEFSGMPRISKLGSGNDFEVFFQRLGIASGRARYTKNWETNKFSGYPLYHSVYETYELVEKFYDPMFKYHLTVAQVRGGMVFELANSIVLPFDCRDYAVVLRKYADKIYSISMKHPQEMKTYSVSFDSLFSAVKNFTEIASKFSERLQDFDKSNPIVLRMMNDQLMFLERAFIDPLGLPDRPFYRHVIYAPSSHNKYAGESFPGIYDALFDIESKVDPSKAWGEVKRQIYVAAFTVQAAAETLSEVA

Take KQSYNFAT [PS69]: the binding result is reported as “no binding (tested: 10 uM)”. KQSYNAIT [PS68]: the binding result is “no binding (tested: 10 uM)”.
